Data from patent US20100323957A1, “NOVEL ASSAY FOR INHIBITORS OF EGFR” (THE REGENTS OF THE UNIVERSITY OF CALIFORNIA THE OFFICE OF …, priority 2007, published 2010).

Tests used:
[1] = biological target: EGFR kinase domain L834R mutant (human) (UniProt P00533); experiment: cell-based or functional assay
[2] = biological target: EGFR kinase domain I682Q mutant with N-terminal His tag and linker (human) (UniProt P00533); experiment: anisotropy
[3] = biological target: wild-type EGFR kinase domain (residues 672-998 of human EGFR) with N-terminal 6-His tag, linker and TEV site (human) (UniProt P00533); experiment: cell-based or functional assay

Chain of 30-residue fluorescein-labelled MIG6 peptide (residues 334-363) (Q9UJM3 334-363): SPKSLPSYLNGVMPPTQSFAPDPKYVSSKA

For “MIG6(segments 1-2) peptide (residues 336-412) bearing Y358A (from UniProt Q9UJM3 336-412)”, the IC50, inhibition of kinase activity in solution [1] was 5 µM.

Substance “30-residue fluorescein-labelled MIG6 peptide (residues 334-363) (from UniProt Q9UJM3 334-363)” has a Kd [2] of 18.3 µM.

“40-residue MIG6 peptide (residues 325-364) (from UniProt Q9UJM3 325-364)” gave an IC50, inhibition of activated EGFR kinase [3] of 10 µM.

For “MIG6(segments 1-2) peptide (residues 336-412) (from UniProt Q9UJM3 336-412)”, the IC50, inhibition of kinase activity in solution [1] was 0.2 µM.
